Values quoted from earlier work, collected in PMC6530603.
pKd: −log10 of the molar value.

Molecular target: VP30 CTD (Zaire ebolavirus) (UniProt Q77DJ5)

Question: With “Nucleoprotein NP C-terminal region peptide (from UniProt P18272)” as the substance, how does the pKd read?
Answer: The pKd was 5.24.
